Assay [1] has as its target T1, TRAIL (TNF-related apoptosis-inducing ligand), soluble (UniProt P50591 95-281, limits assumed).
T1 construct: also called Apo-2 ligand; Apo-2L
Nature of the assay: receptor-Fc / ligand co-precipitation, immunoblot. On the technique in general: Immunoblotting shows a protein as a band on a membrane.

The target in another assay is T2, Fas ligand (UniProt P48023 130-281, limits assumed).
T2 construct: Detected by immunoblotting with an antibody to FasL (Pharmingen)
T2 sequence (looked up): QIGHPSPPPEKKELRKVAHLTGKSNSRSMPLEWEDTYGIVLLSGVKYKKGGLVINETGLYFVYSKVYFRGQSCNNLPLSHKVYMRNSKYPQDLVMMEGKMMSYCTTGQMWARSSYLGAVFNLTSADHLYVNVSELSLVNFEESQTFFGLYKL
Put plainly: receptor-Fc / ligand co-precipitation, immunoblot.

The target of assay [2] is T3, TNFα (tumor necrosis factor alpha) (UniProt P01375 77-233, limits assumed).
T3 construct: also called TNF alpha
T3 sequence (P01375 77-233 limits assumed): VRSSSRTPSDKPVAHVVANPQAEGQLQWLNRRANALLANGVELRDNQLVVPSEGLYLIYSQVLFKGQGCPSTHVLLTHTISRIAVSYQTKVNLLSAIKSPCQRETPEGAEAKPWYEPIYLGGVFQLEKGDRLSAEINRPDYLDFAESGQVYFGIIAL
Put plainly: co-precipitation from mixed conditioned media with protein G-Sepharose, immunoblot.

T1 sequence (P50591 95-281 limits assumed): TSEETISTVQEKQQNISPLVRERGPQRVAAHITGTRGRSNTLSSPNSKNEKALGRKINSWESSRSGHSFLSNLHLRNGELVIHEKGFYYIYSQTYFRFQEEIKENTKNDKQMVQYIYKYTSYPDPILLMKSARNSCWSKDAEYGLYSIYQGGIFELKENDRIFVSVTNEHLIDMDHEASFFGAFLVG

B1: TNFR1-Fc (extracellular domain of TNFR-1 expressed as an Fc fusion) (Fc fusion, UniProt P19438 30-211, looked up)
chain: LVPHLGDREKRDSVCPQGKYIHPQNNSICCTKCHKGTYLYNDCPGPGQDTDCRECESGSFTASENHLRHCLSCSKCRKEMGQVEISSCTVDRDTVCGCRKNQYRHYWSENLFQCFNCSLCLNGTVHLSCQEKQNTVCTCHAGFFLRENECVSCSNCKKSLECTKLCLPQIENVKGTEDSGTT
notes: extracellular domain; not shown: Fc portion of human IgG
Turning to B1, the binding result in assay [1] was “no binding”.

B2: CD95-Fc (extracellular domain of CD-95 / Fas expressed as an Fc fusion) (Fc fusion, UniProt P25445 26-173, looked up)
chain: QVTDINSKGLELRKTVTTVETQNLEGLHHDGQFCHKPCPPGERKARDCTVNGDEPDCVPCQEGKEYTDKAHFSSKCRRCRLCDEGHGLEVEINCTRTQNTKCRCKPNFFCNSTVCEHCDPCTKCEHGIIKECTLTSNTKCKEEGSRSN
notes: extracellular domain; also called Fas-Fc; Fc-extracellular domain of Fas; not shown: Fc portion of human IgG
In the case of B2, the binding result in assay [1] is “no binding”.

B3: DR4-Fc (soluble extracellular ligand binding domain of DR4, amino acids 110 to 239, fused to the Fc portion of human IgG) (Fc fusion)
chain: TIKLHDQSIGTQQWEHSPLGELCPPGSHRSERPGACNRCTEGVGYTNASNNLFACLPCTACKSDEEERSPCTTTRNTACQCKPGTFRNDNSAEMCRKCSTGCPRGMVKVKDCTPWSDIECVHKESGNGHN
notes: Cloned into a modified pCMV1FLAG vector for in-frame fusion with human IgG Fc and expressed in 293 cells; used as conditioned medium; also called soluble extracellular DR4-Fc fusion; Fc-extracellular domain of DR4; not shown: Fc portion of human immunoglobulin (IgG)
As to B3, the binding result (with Fas ligand; in assay [2]) was “no binding” in each case.

Values taken from patent US20080241155A1 (Human Genome Sciences, published 2008).
